Reference: publication PMC8770708
“And” between values parts separate entries of the source, which are not always exact repeats. Equal entries are not always repeated.

What was measured:
[1] = molecular target: TraB with a C-terminal double twin-Strep tag (TraB_(Strep4)), VirB10-like subunit of the pED208-encoded T4SS (IncFV plasmid pED208 (carried in E. coli)); experiment: cryo-EM structure; OMCC purified in the same way from E. coli BL21(DE3, pKBV) producing only TraV, TraK and TraB_(Strep4); C13 reconstruction of the ORC, C17 and C16 reconstructions of the CC
[2] = molecular target: TraB with a C-terminal double twin-Strep tag (TraB_(Strep4)), VirB10-like subunit of the pED208-encoded T4SS (IncFV plasmid pED208 (carried in E. coli)); experiment: cryo-EM structure; OMCC purified from E. coli MC4100(pED208-traB_(Strep4)) (WT) by StrepTrap and Superdex 200 in 50 mM Tris-HCl pH 8, 200 mM NaCl, 1 mM DTT, 1 mM EDTA, 0.06% DM-NPG, 0.1% digitonin; C1, C13 and C17 reconstructions
[3] = molecular target: TraK, VirB9-like subunit of the pED208-encoded T4SS (IncFV plasmid pED208 (carried in E. coli)); experiment: as above
[4] = molecular target: TraV, VirB7-like lipoprotein subunit of the pED208-encoded T4SS (IncFV plasmid pED208 (carried in E. coli)); experiment: as above

TraB with a C-terminal double twin-Strep tag (TraB_(Strep4)), VirB10-like subunit of the pED208-encoded T4SS (natural protein)
stoichiometry N [1]: 16 and 17 | stoichiometry N [2]: 17 copies

TraK, VirB9-like subunit of the pED208-encoded T4SS (natural protein)
stoichiometry N [3]: 26 copies

TraV, VirB7-like lipoprotein subunit of the pED208-encoded T4SS (natural protein)
stoichiometry N [4]: 26 copies
